From patent US20260028391A1 come the findings set out here.

Positions count from the first letter of the chain named.

The target in test [1] is RSV fusion glycoprotein (RSV-F) of the RSV used in the neutralization of Table 33 (respiratory syncytial virus, strain not stated). Nature of the test: cell-based or functional assay.
For test [2], the target named is fusion glycoprotein (F) of the MPV used in the neutralization of Table 34 (metapneumovirus). The test is described as follows: cell-based or functional assay.
Test [3] addresses biot-MPV-F D280N (metapneumovirus (MPV)). The test is described as follows: BLI (Octet), biotinylated F on SA sensors, mAb 5 µg/ml.
Test [4] has as its target biot-MPV-F wt (metapneumovirus (MPV)). The test is described as above.
Test [5] concerns the target MPV F D280N mutant expressed on transfected Expi293F cells (metapneumovirus (MPV)). Nature of the test: flow cytometry, transfected Expi293F cells, fixed and permeabilised. (In general: Flow cytometry measures light scatter and fluorescence of single cells or particles in a stream.)
The target in test [6] is MPV F WT expressed on transfected Expi293F cells (metapneumovirus (MPV)). The test is described as above.
Test [7] has as its target biot-MPV-F D280N (metapneumovirus (MPV)). The test is described as follows: BLI, SA sensor loaded with biot-MPV-F D280N (sheet title 'MPV-G D280N'), mAb 5 ug/ml, 4 min association, 6 min dissociation.
In test [8] the target is biot-MPV-F wt (metapneumovirus (MPV)). Nature of the test: BLI, SA sensor loaded with biot-MPV-F wt, mAb 5 ug/ml, 4 min association, 6 min dissociation.
The target of test [9] is RSV-B B18537/62 F protein (RSV B, strain B18537/62) (UniProt P13843). Nature of the test: cell-based or functional assay.
Test [10] addresses RSV-long strain fusion glycoprotein (F) (RSV, long strain) (UniProt P12568). The test is described as follows: cell-based or functional assay.
The target in test [11] is RSV-B B9320 F protein (RSV B, strain B9320). The test is described as follows: cell-based or functional assay.
Test [12] deals with biot-RSV-F wt (respiratory syncytial virus (RSV)). Nature of the test: BLI (Octet), biotinylated F on SA sensors, mAb 5 µg/ml. For orientation: In BLI a coated tip is dipped into the sample, and binding shifts an interference pattern.
Test [13] shares this target. The test is described as follows: BLI, SA sensor loaded with biot-RSV-F wt, mAb 5 ug/ml, 4 min association, 6 min dissociation.
Test [14] concerns the target biot-MPV-F D280N (metapneumovirus (MPV)). The test is described as follows: BLI, SA sensor loaded with biot-MPV-F D280N (sheet title 'MPV-G D280N'; head of the value column printed 'MPV-F', not 'KD (M)'), mAb 5 ug/ml, 4 min association, 6 min dissociation.

B1: MPK190-v1.1-rIgG1m17,1-LS (antibody, V domains shown)
VH: QVQLVESGGGLVKPGGSLTLSCAASGFSISGYGMNWVRQAPGRGLEWVASISASSTYIYYADSMKGRFTISRDNGKTSLYLQMKSLRAEDTAVYYCARAPIEPPYFDLWGRGTLVTVSS
VL: QSVLTQPPSVSGAPGQRVTISCTGSNSNIGAGYDVHWYQHLPGKAPKVLIYGNNNRPSVVPDRFSGSNSGASASLAISGLQAEDEADYFCQSYDRRLSGPIFGGGTKLTVL
B1 registered an IC50 (ng/mL) in neutralization against RSV in test [1] of 5.8 ng/mL. The molecule also gave an IC50 (ng/mL) in neutralization against MPV in test [2] of 0.705 ng/mL. Moreover, the Kd in test [3] is 362 pM; in [4] it was less than 1 pM; in test [7] it was 402 pM; in [8], less than 1 pM. In addition, the Binding (FACS) relative to parental mAb MPK190-v1.1 in [5] and in test [6] was 1 in each case.

B2: MPK190-rFab (Fab, V domains shown)
VH: B1 VH with Q1E
VL: B1 VL
B2: the EC50, virus neutralization (Fab testing) in [9] was 63.3 pM; in test [10] it was 97.9 pM; in test [11], 32.5 pM.

B3: MPH12-rIgG1-LS (antibody, V domains shown)
VH: QVQLVESGGGLVKPGGSLRLSCVASGFTFSGFYMKWIRQAPGKGLEWVSSISASGSYTNYADSVEGRFTVSRDNAKNSLFLLMSSLRAEDTAVYYCARGDSYCGASACHGEFFHKWGQGTLVTVSS
VL: QSVLTQPPSVSGAPGQRVTISCTGSDSNIGADFDVHWYQQLPGTAPKLLIYGNINRPSGVPDRFSGSRSGTSAFLAITRLQAEDEADYYCQSYDRSLHYVFGAGTKVTVL
In turn, B3 returned an IC50 (ng/mL) in neutralization against RSV in test [1] of 12.9 ng/mL. This molecule also returned an IC50 (ng/mL) in neutralization against MPV in test [2] of 5.26 ng/mL. The figures for the Kd in test [3], in test [4] and in [12] were 1010 pM, less than 1 pM and 1200 pM, respectively.

B4: MPK77-rIgG1-LS (antibody, V domains shown)
VH: EVQLVESGGGLVKPGGSLRLSCAASKSFSGYYMIWIRQAPGRGLEWIADISGSSTYTDYADSVKGRFTISRDNTRNTLYLQMNSLRPEDTAVYYCATEQVPSPGPFDLWGPGTLVTVSS
VL: QSVLTQPPSVSGAPGQRVIISCTGSSSNIGAGYDVHWYQQFPGTSPKLLIYRNTNRPSGVPDRFSGFKSGASAALAITGLQAEDEADYYCQSYDRSLSGWAFGGGTKVTVL
With B4, the dissociation constant Kd in test [3] is 394 pM; in test [4], less than 1 pM; in test [12], 2.28 pM; in test [7], 406 pM; in test [8], less than 1 pM; in [13], less than 1 pM.

B5: MPK104-rIgG1-LS (antibody, V domains shown)
VH: EVQLVESGGGLVKPGGSLRLSCAASGFTIDGYGMNWVRQAPGKGLEWVSSISASSNYIYYADSMKGRFTISRDNGKNSLYLQMHSLRVEDTGVYYCARAPLEPPYFDLWGRGTLVTVSS
VL: QSVLTQPPSVSGAPGQRVTISCSGGSSNIGAGYDVHWYQQVPGKGPKVLIYGNNNRPSGVPDRFSGSNFGASASLAITGLQADDEADYFCQSYDRRLGGPVFGGGTKLTVL
B5: the Kd in test [3] was 391 pM; in test [4], less than 1 pM; in test [12], 306 pM; in [8], less than 1 pM; in test [14], 472 pM; in test [13], 37.3 pM.

The term Kd denotes the concentration at which binding is half-saturated.
